# Results: article PMC7293044
# T1: Edc3 (UniProt P39998 1-551)
# T1 sequence: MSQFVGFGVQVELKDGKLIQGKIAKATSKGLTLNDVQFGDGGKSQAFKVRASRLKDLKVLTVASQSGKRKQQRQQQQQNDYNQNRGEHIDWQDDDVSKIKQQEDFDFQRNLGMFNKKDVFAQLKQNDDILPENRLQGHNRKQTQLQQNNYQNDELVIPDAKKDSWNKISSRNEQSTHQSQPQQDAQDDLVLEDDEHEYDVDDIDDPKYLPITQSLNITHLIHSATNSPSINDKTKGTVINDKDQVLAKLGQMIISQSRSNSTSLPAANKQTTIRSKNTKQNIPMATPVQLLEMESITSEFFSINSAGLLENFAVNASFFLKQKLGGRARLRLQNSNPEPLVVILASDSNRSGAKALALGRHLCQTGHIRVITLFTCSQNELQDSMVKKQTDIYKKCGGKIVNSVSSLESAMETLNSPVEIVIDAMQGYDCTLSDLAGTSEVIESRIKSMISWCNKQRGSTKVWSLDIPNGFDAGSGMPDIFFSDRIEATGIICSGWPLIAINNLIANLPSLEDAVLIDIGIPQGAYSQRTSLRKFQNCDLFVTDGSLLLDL
# B1: RPS28B 3'UTR stem-loop 60mer (WT) (structured_RNA)
# RNA: AUUUUUCAAAAAAUGAAUUAAAUGAUUGAAGUCACUUAAUUUUUGUGGUUUUUUGGAGGU
# Biological target: T1, Edc3
# Test: EMSA
binder,measurement,value
B1,Kd,2550 nM
